From the RNAGym collection of RNA variant scans (doi:10.1073/pnas.2313332121)
This sample holds only a part of the variants without activity.

B1: TPR 5TU (parent)
chain: GGAUCUUCUCGAUCUAACAAAAAAGACAAAUCUGCCACAAAGCUUGAGAGCAUCUUCGGAUGCAGAGGCGGCAGCCUUCGGUGGCGCGAUAGCGCCAACGUUCUCAACUAUGACACGCAAAACGCGUGCUCCGUUGAAUGGAGUUUAUCAUG

Variants of: B1
Assay: polymerase ribozyme fitness, log enrichment relative to wild type (log ratio); higher = more active; in vitro selection for triplet polymerase activity
Method in brief: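 After PCR construction and transcription, each subunit's mutant library from a heterodimeric triplet polymerase ribozyme was annealed with a biotinylated primer, the partner subunit and triplets. Incubation was frozen, at −7 °C, and extended constructs were gel-excised, bound to streptavidin beads and amplified by RT-PCR, in one selection round done in triplicate. Fitness is the logarithm of a genotype's enrichment divided by that of the wild type, from inverse-variance-weighted replicate averages of Illumina-sequenced inputs and outputs. The base of the logarithm is 2, and genotypes needed ≥10 input reads and ≥1 read per output.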

Variant	polymerase ribozyme fitness (log ratio)
U44G G59A A60C G83A C95G C103G	≤ -4.2
C43G G83C	≤ -4.2
G42C U44A G70C C96U G126U G141A	≤ -4.2
G42C U55A G70C C96U	≤ -4.2
G42A A142C U148G	≤ -4.2
U44G C93U A137G U148C	≤ -4.2
A41U U144G G152A	-1.09
C43U C85A C87U G94C	≤ -4.2
C43A A52C C75U U90G C95U C96G C114G U144G	≤ -4.2
G42C U44A A49C G126C C131A A142G A147U	≤ -4.2
G42C C43G U56A G59U C85U C125A U127C	≤ -4.2
G42U A91G G128U G133A	≤ -4.2
G42C G46A G68C C95A A106U C108G	≤ -4.2
U44A C51U C76U C95A	≤ -4.2
G42U U44A C85A C96G A115C C129A	≤ -4.2
U44A U53G C105U C116G G141C	≤ -4.2
U44A C76U G86U A121U	-3.86
G42U G84U G117U C118G A142G	≤ -4.2
G42A U55A C96A	-4.06
G42U U56A G58A C76U C95G A98G	≤ -4.2
U44A G58U G70C C76A A91G A115C	≤ -4.2

Variant	polymerase ribozyme fitness (log ratio)
C43G G94A	-3.81
G42C C95A	≤ -4.2
U44A C85U U139C	≤ -4.2
C43A A66G U77A A97G U146A	≤ -4.2
U44A A52C C54A G92A G141C	≤ -4.2
G42A U61A G86A G136C	≤ -4.2
G42C A47C U53A U82C G84A A122G A138U G143C	≤ -4.2
G42U C76G G80A C95G	≤ -4.2
A41U G133U U135A A142G A147U	≤ -4.2
U44A U53C G86A A147C	≤ -4.2
C43G U55A U61G G86A A89G A122U	≤ -4.2
U44C G50U U101G C131U U139C C149U	≤ -4.2
G42U U56A A120U A142C	≤ -4.2
G42C U44G A49U U56C G94U U111C G143A	≤ -4.2
U44A U53G G67A U78A G81C G88A G92C A138U	≤ -4.2
C43A G50A C72U G84U U90A C103A G141U	≤ -4.2
U44G G65A A66C A91G	≤ -4.2
G42C U44A A52G G70U G83C	≤ -4.2
G42C U55A C85U	≤ -4.2
U44G A52C G92U G141A	≤ -4.2
U44G U56A C79A G124U	≤ -4.2

Variant	polymerase ribozyme fitness (log ratio)
G42U U45A U56A G83A A121U	≤ -4.2
U44G G59C U78C G117U G143C	≤ -4.2
G42A C79G U144C	≤ -4.2
G42A G92A C96U A98G U151G	≤ -4.2
G42C A47C C57U G81C C95A	≤ -4.2
A41U U61A G68U A107C U145G	≤ -4.2
C43U C54G G92A U148G C149U	≤ -4.2
G42U C108U C125U A138U U148A	-4.13
G42U G70C G83C G141C	≤ -4.2
G42A G59A G92A G100A C125A U146C	≤ -4.2
G42A C54G U82C G94U	≤ -4.2
G42A C54U G117A	≤ -4.2
U44G G58U A98G U144A	≤ -4.2
C43G C54A U55A A73G G74C G124C	≤ -4.2
U44G G48U G86A G100C C105A G126A U134C	≤ -4.2
G42A G58U A64G G68U G92C C95U C129U U134C	≤ -4.2
G42A G88A C93G U145G C149A	≤ -4.2
G42U U53C C95G	≤ -4.2
C43G U56G C96U U139G U148G	≤ -4.2
A41U U53A G74C U82C	≤ -4.2
G42C C79G G124C	≤ -4.2

Variant	polymerase ribozyme fitness (log ratio)
U44A C76U	-4.19
U44A U53A G86U C132U U135G	≤ -4.2
U44G U45G C72G	≤ -4.2
C43A U45G U90A U102G G140A A147C	≤ -4.2
G42U U45A C95U C149A	≤ -4.2
U44A G88A A120G	≤ -4.2
U44A G88A A120U	≤ -4.2
C43U C95A	-4.15
C43U G86U	-4.15
C43U G48A C57G C85U	≤ -4.2
C43U U56A C87A G152U	≤ -4.2
U44A U61G A66C A91U C132U G141C	≤ -4.2
C43U C54A U55C C85U C99G A147G	≤ -4.2
U44A C85A G92A A107U G128U	≤ -4.2
G42A U61A G84C G133U U144G	≤ -4.2
G42A C43A G48A G50C A66C C85U	≤ -4.2
G42A C51G C75G C99U	≤ -4.2
C43U A73G C79A U134A	≤ -4.2
C43A U53G U56G A97U A137G	≤ -4.2
G42C U82G U104A C116U A137G G152A	≤ -4.2
G42A A49C C69G A137U	≤ -4.2
